In PMC7926377:

Key:
[1] = biological target: T1, His6-SplF (S. aureus strain 8325-4) (UniProt Q2FXC8)
T1 sequence: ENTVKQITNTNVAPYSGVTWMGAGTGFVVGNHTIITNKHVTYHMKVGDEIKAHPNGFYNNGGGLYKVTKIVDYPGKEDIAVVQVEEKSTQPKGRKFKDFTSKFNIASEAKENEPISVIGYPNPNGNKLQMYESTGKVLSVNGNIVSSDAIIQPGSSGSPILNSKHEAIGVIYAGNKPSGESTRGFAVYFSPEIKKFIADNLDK

[2] = biological target: Met-Gly-SplF-His6 (S. aureus strain 8325-4) (UniProt Q2FXC8)
[3] = biological target: T2, SplF-His6 (S. aureus strain 8325-4) (UniProt Q2FXC8)
T2 sequence: T1 sequence

ABZ-Tyr-Met-Leu-Ser-ANB-NH2 (peptide) gave a KM of ABZ-Tyr-Met-Leu-Ser-ANB-NH2 hydrolysis (Michaelis-Menten fit, PBS, 37 °C) [1] of 21.4 µM, a KM of ABZ-Tyr-Met-Leu-Ser-ANB-NH2 hydrolysis (Michaelis-Menten fit, PBS, 37 °C) [2] of 18.2 µM and a KM of ABZ-Tyr-Met-Leu-Ser-ANB-NH2 hydrolysis (Michaelis-Menten fit, PBS, 37 °C) [3] of 30.8 µM.
